Results taken from publication PMC8760489 (The Journal of Biological Chemistry, 2021).

Target: T1, His6-TviD (Salmonella enterica serovar Typhi, UniProt Q04974 1-831)
T1 sequence: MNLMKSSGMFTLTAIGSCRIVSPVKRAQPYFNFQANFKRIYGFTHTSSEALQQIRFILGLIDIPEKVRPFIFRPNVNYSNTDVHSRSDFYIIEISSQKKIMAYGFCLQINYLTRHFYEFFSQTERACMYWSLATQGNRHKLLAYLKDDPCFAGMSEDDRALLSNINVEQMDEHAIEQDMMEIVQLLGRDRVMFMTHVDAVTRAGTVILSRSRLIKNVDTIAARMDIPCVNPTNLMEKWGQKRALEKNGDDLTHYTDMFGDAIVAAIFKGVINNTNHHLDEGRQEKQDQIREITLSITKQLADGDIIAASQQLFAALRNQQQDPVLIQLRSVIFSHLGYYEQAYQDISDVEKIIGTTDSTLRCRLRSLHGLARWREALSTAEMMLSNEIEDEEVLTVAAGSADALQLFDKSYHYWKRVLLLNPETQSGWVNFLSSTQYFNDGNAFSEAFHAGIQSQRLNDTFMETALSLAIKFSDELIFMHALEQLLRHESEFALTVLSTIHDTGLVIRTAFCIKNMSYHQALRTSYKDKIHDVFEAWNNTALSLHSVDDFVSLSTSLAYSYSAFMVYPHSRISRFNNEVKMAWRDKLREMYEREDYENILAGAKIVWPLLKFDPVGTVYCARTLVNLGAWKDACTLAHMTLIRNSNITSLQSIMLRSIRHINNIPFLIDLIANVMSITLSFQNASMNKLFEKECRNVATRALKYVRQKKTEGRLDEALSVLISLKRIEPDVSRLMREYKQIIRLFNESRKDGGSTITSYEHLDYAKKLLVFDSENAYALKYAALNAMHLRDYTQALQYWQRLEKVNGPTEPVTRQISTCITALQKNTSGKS
Assay: […]

B1: TviE-FLAG (enzyme)
chain: MITQEEKLAALGKTCLTLKQEKKLAQAVALIDSELPTEALTSLAMLKKAEFLHDVNETERAYALYETLIAQNNDEARYEYARRLYNTGLAKDAQLILKKVSNGVQKKYNNYLGKINKICDLLERLEGKAIPVGTNTCIIAMKHAILFYRNRQPRQLPVGSFGRLALCTGSLGSGGAERQISRLAIEIARKYRQKGKIGGLKVEEPVELIIRSLTPELRQDFFLKEVLEEQVEVLEIAKITGNLFDDATIESPELRLLLSHLPPVCKYGIKHLVPHLCERKLDYLSVWQDSACLMIALAALIAGVPRIQLGLRGLPPVVRKRLFKPEYEPLYQALAVVPGVDFMSNNHCVTRHYADWLKLEAKHFQVVYNGVLPPSTEPSSEVPHKIWQQFTQKTQDADTTIGGVFRFVGDKNPFAWIDFAARYLQHHPATRFVLVGDGDLRAEAQKRAEQLGILERILFVGASRDVGYWLQKMNVFILFSRYEGLPNVLIEAQMVGVPVISTPAGGSAECFIEGVSGFILDDAQTVNLDQACRYAEKLVNLWRSRTGICQQTQSFLQERFTVEHMVGTFVKTIASQPR
B1: binds.
